Measurements: article PMC7994332, “A Bifan Motif Shaped by ArsR1, ArsR2, and Their Cognate Promoters Frames Arsenic Tolerance of Pseudomonas putida” (Frontiers in Microbiology, 2021)

Columns and labels:
[1] = test system: 6His-ArsR2 (Pseudomonas putida KT2440); test: EMSA; conditions: no arsenite; 'gross KD'; EMSA: TRRG buffer (20 mM Tris-HCl pH 7.5, 50 mM KCl, 2 mM beta-mercaptoethanol, 10% glycerol), BSA, 25 ug/ml herring sperm DNA, 0.3 nM probe, 20 min 30 C …
[2] = test system: 6His-ArsR1 (Pseudomonas putida KT2440); test: EMSA; conditions: no arsenite; 'gross KD'; EMSA: TRRG buffer (20 mM Tris-HCl pH 7.5, 50 mM KCl, 2 mM beta-mercaptoethanol, 10% glycerol), BSA, 25 ug/ml herring sperm DNA, 0.3 nM probe, 20 min 30 C …
[3] = target: the molecule itself; test: AUC; sedimentation velocity, 20°C, 48,000 rpm, 20 mM NaH2PO4, 100 mM KCl, 2 mM β-mercaptoethanol, pH 8.0, with or without 2 mM arsenite; data shown for 20 μM protein (methods: 42 μM 6His-ArsR1, 36 μM 6His-ArsR2); s = 2.1 ± 0.1 S

Molecule	stoichiometry N [3]	further results
Pars2 probe	–	Kd [1]: 500 nM
Pars1 probe	–	Kd [2]: 200 nM
6His-ArsR2 (natural protein, Pseudomonas putida KT2440, UniProt Q88JD1 1-115, looked up, ArsR2, As(III)-responsive transcriptional repressor of the ars2 operon (SmtB/ArsR family), Pseudomonas putida KT2440; protein of 115 amino acids; 364-bp PCR fragment that includes the arsR2 gene cloned BamHI/HindIII into pQE32; Theoretical monomer mass with tag 14,519 Da; source: E. coli M15 (pREP4, pQE32-ArsR2), purified (Ni-NTA agarose, dialysed)) MITPPDVFKSLSDETRARATLLIASLGELCVCELMCALNDSQPKISRHLAQLRSNGMLLDRRQGQWVYYRLNPELPSWVHEMLQVTLQANSQWLADNALRLKNMDGRPVRDSVCC	2	–
6His-ArsR1 (natural protein, Pseudomonas putida KT2440, UniProt Q88LK1 11-128, looked up, ArsR1, As(III)-responsive transcriptional repressor of the ars1 operon (SmtB/ArsR family), Pseudomonas putida KT2440; protein of 118 amino acids; 373-bp PCR fragment that includes the arsR1 gene cloned BamHI/HindIII into pQE32; Theoretical monomer mass with tag 14,869 Da; source: E. coli M15 (pREP4, pQE32-ArsR1), purified (Ni-NTA agarose, dialysed)) MREILTPPIVFKCLADDTRARMTLLIAREGELCVCELTHALELSQPKISRHLAQLREAGILMDRRKGQWVYYRLHPEVPQWVDAMLKGVVDANQEWLSPDALRLAEMGERPQSPVACA	2	–
